# Results taken from US20090048164A1.
# Read-outs that look alike come from different tables or passages of the source.
# Columns and labels:
# Experiment in all cases: competition phage ELISA
# [1] = biological target: Recombinant human Bcl-xL with a 25 amino acid truncation of its C-terminus (human) (UniProt Q07817)
# [2] = biological target: mouse Mcl-1 with truncations of 151 amino acid residues at its N-terminus and 23 residues at its C-terminus (mouse) (UniProt P97287)
# [3] = biological target: Recombinant human Bcl-xL with a 25 amino acid truncation of its C-terminus (human) (UniProt Q07817); remark: listed apart in the source
# Chain of mouse Mcl-1 with truncations of 151 amino acid residues at its N-terminus and 23 residues at its C-terminus (mouse) (P97287 152-308): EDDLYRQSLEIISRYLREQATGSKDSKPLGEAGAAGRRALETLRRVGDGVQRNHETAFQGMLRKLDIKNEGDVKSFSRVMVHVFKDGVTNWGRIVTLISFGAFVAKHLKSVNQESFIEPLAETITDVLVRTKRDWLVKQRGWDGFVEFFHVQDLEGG
# Chain of Recombinant human Bcl-xL with a 25 amino acid truncation of its C-terminus (human) (Q07817 1-208): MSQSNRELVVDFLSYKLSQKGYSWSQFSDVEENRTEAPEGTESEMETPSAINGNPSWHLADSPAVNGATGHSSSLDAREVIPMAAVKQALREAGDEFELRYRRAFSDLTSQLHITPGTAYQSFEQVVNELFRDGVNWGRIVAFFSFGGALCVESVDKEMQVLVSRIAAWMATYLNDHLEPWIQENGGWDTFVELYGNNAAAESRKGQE
binder,measurement,setting,value
"PSSAMGQVGRQLAIIGDDINRRYDSE [Bak BH3 T4A, phage-displayed]",Fold/wt,[1],1 fold
same,IC50,[1],28 nM
same,Fold/wt,[2],1 fold
same,IC50,[2],14 nM
"PSSTMGQVGRQLAIIGDDINARYDSE [Bak BH3 R21A, phage-displayed]",Fold/wt,[1],2 fold
same,IC50,[1],87 nM
same,Fold/wt,[2],1 fold
same,IC50,[2],17 nM
"PSSTMGQVGRQLAIIGDDINRRYDAE [Bak BH3 S25A, phage-displayed]",Fold/wt,[1],1 fold
same,IC50,[1],31 nM
same,Fold/wt,[2],1 fold
same,IC50,[2],18 nM
"PSSTMGQVGRALAIIGDDINRRYDSE [Bak BH3 Q11A, phage-displayed]",Fold/wt,[1],5 fold
same,IC50,[1],238 nM
same,Fold/wt,[2],1 fold
same,IC50,[2],16 nM
"QEDIIRNIARALAQVGDSMDRSIPPG [Bid BH3 H11A, phage-displayed]",Fold/wt,[1],1 fold
same,IC50,[1],9 nM
same,Fold/wt,[2],1 fold
same,IC50,[2],89 nM
"QEDIIRNIARHLAQVGDSMDRSIAPG [Bid BH3 P24A, phage-displayed]",Fold/wt,[1],1 fold
same,IC50,[1],14 nM
same,Fold/wt,[2],1 fold
same,IC50,[2],90 nM
"QEDIIRAIARHLAQVGDSMDRSIPPG [Bid BH3 N7A, phage-displayed]",Fold/wt,[1],1 fold
same,IC50,[1],10 nM
same,Fold/wt,[2],1 fold
same,IC50,[2],54 nM
"QEDIIRNIARHLAQVGDSMARSIPPG [Bid BH3 D20A, phage-displayed]",Fold/wt,[1],1 fold
same,IC50,[1],13 nM
same,Fold/wt,[2],1 fold
same,IC50,[2],84 nM
"QEDAIRNIARHLAQVGDSMDRSIPPG [Bid BH3 I4A, phage-displayed]",Fold/wt,[1],3 fold
same,IC50,[1],31 nM
same,Fold/wt,[2],1 fold
same,IC50,[2],134 nM
"QEDIIRNIAAHLAQVGDSMDRSIPPG [Bid BH3 R10A, phage-displayed]",Fold/wt,[1],2 fold
same,IC50,[1],26 nM
same,Fold/wt,[2],1 fold
same,IC50,[2],130 nM
"QEDIIRNIARHLAAVGDSMDRSIPPG [Bid BH3 Q14A, phage-displayed]",Fold/wt,[1],1 fold
same,IC50,[1],13 nM
same,Fold/wt,[2],1 fold
same,IC50,[2],124 nM
"PSSTMGQVGRQLAIIGDDINRAYDSE [Bak BH3 R22A, phage-displayed]",Fold/wt,[1],1 fold
same,IC50,[1],37 nM
same,Fold/wt,[2],1 fold
same,IC50,[2],16 nM
"PSSTMGQVGRQLAIIGDDINRRYDSE [Bak BH3 wild type, phage-displayed]",Fold/wt,[1],1 fold
same,IC50,[1],49 nM
same,Fold/wt,[2],1 fold
same,IC50,[2],21 nM
"PSSTMGQVGRQLAIIGDAINRRYDSE [Bak BH3 D18A, phage-displayed]",Fold/wt,[1],1 fold
same,IC50,[1],33 nM
same,Fold/wt,[2],1 fold
same,IC50,[2],14 nM
"PSSTMGAVGRQLAIIGDDINRRYDSE [Bak BH3 Q7A, phage-displayed]",Fold/wt,[1],1 fold
same,IC50,[1],48 nM
same,Fold/wt,[2],1 fold
same,IC50,[2],20 nM
"NLWAAQRYGRELRRMSDEFVDSFKKG [Bad BH3 wild type, phage-displayed]",IC50,[3],1 nM
same,Fold/wt,[1],1 fold
same,IC50,[1],2 nM
"QEDIIRNIARHLAQVGDSMDRSIPPG [Bid BH3 wild type, phage-displayed]",Fold/wt,[1],1 fold
same,IC50,[1],11 nM
same,Fold/wt,[2],1 fold
same,IC50,[2],99 nM
"PSSTMGQVGRQLAIIGDDINRRYASE [Bak BH3 D24A, phage-displayed]",Fold/wt,[1],1 fold
same,IC50,[1],30 nM
same,Fold/wt,[2],< 1 fold
same,IC50,[2],9 nM
"PSATMGQVGRQLAIIGDDINRRYDSE [Bak BH3 S3A, phage-displayed]",Fold/wt,[1],1 fold
same,IC50,[1],25 nM
same,Fold/wt,[2],1 fold
same,IC50,[2],17 nM
"QEDIIRNIARHLAQVGDSMDASIPPG [Bid BH3 R21A, phage-displayed]",Fold/wt,[1],3 fold
same,IC50,[1],32 nM
same,Fold/wt,[2],1 fold
same,IC50,[2],132 nM
"QADIIRNIARHLAQVGDSMDRSIPPG [Bid BH3 E2A, phage-displayed]",Fold/wt,[1],1 fold
same,IC50,[1],12 nM
same,Fold/wt,[2],1 fold
same,IC50,[2],140 nM
"PSSTMGQVGAQLAIIGDDINRRYDSE [Bak BH3 R10A, phage-displayed]",Fold/wt,[1],3 fold
same,IC50,[1],163 nM
same,Fold/wt,[2],1 fold
same,IC50,[2],29 nM
"QEDIARNIARHLAQVGDSMDRSIPPG [Bid BH3 I5A, phage-displayed]",Fold/wt,[1],2 fold
same,IC50,[1],21 nM
same,Fold/wt,[2],1 fold
same,IC50,[2],144 nM
"ASSTMGQVGRQLAIIGDDINRRYDSE [Bak BH3 P1A, phage-displayed]",Fold/wt,[1],1 fold
same,IC50,[1],31 nM
same,Fold/wt,[2],1 fold
same,IC50,[2],18 nM
"PSSTMGQVGRQLAAIGDDINRRYDSE [Bak BH3 I14A, phage-displayed]",Fold/wt,[1],1 fold
same,IC50,[1],66 nM
same,Fold/wt,[2],1 fold
same,IC50,[2],14 nM
"AEDIIRNIARHLAQVGDSMDRSIPPG [Bid BH3 Q1A, phage-displayed]",Fold/wt,[1],2 fold
same,IC50,[1],24 nM
same,Fold/wt,[2],1 fold
same,IC50,[2],79 nM
"PSSTMGQVGRQLAIIGDDIARRYDSE [Bak BH3 N20A, phage-displayed]",Fold/wt,[1],2 fold
same,IC50,[1],111 nM
same,Fold/wt,[2],1 fold
same,IC50,[2],23 nM
"PSSTMEQVGRQLAIIGDDINRRYDSE [Bak BH3 G6E, phage-displayed]",Fold/wt,[1],< 1 fold
same,IC50,[1],14 nM
same,Fold/wt,[2],1 fold
same,IC50,[2],11 nM
"PSSTMGQVGRQLAIIGDDINRRADSE [Bak BH3 Y23A, phage-displayed]",Fold/wt,[1],1 fold
same,IC50,[1],52 nM
same,Fold/wt,[2],6 fold
same,IC50,[2],117 nM
"QEDIIRNIARHLAQVGDSMDRAIPPG [Bid BH3 S22A, phage-displayed]",Fold/wt,[1],1 fold
same,IC50,[1],13 nM
same,Fold/wt,[2],1 fold
same,IC50,[2],128 nM
"PSSTMGQVGRQLAIIGDDINRRYDSA [Bak BH3 E26A, phage-displayed]",Fold/wt,[1],1 fold
same,IC50,[1],29 nM
same,Fold/wt,[2],< 1 fold
same,IC50,[2],10 nM
"PSSTAGQVGRQLAIIGDDINRRYDSE [Bak BH3 M5A, phage-displayed]",Fold/wt,[1],< 1 fold
same,IC50,[1],15 nM
same,Fold/wt,[2],1 fold
same,IC50,[2],18 nM
"QEDIIRNIARHLAQVGDAMDRSIPPG [Bid BH3 S18A, phage-displayed]",Fold/wt,[1],1 fold
same,IC50,[1],16 nM
same,Fold/wt,[2],1 fold
same,IC50,[2],104 nM
"QEDIIRNIARHLAQVGDSMDRSAPPG [Bid BH3 I23A, phage-displayed]",Fold/wt,[1],1 fold
same,IC50,[1],15 nM
same,Fold/wt,[2],1 fold
same,IC50,[2],142 nM
"QEAIIRNIARHLAQVGDSMDRSIPPG [Bid BH3 D3A, phage-displayed]",Fold/wt,[1],1 fold
same,IC50,[1],15 nM
same,Fold/wt,[2],1 fold
same,IC50,[2],96 nM
"PASTMGQVGRQLAIIGDDINRRYDSE [Bak BH3 S2A, phage-displayed]",Fold/wt,[1],1 fold
same,IC50,[1],28 nM
same,Fold/wt,[2],1 fold
same,IC50,[2],16 nM
"QEDIIRNIARHLAQVGDSMDRSIPAG [Bid BH3 P25A, phage-displayed]",Fold/wt,[1],1 fold
same,IC50,[1],16 nM
same,Fold/wt,[2],1 fold
same,IC50,[2],87 nM
"QEDIIRNIARHLAQVGDSMDRSIPPE [Bid BH3 G26E, phage-displayed]",Fold/wt,[1],2 fold
same,IC50,[1],17 nM
same,Fold/wt,[2],1 fold
same,IC50,[2],94 nM
"QEDIIANIARHLAQVGDSMDRSIPPG [Bid BH3 R6A, phage-displayed]",Fold/wt,[1],3 fold
same,IC50,[1],31 nM
same,Fold/wt,[2],1 fold
same,IC50,[2],88 nM
